As a reminder, the stoichiometry N is the number of molecules, sites or subunits per partner or assembly.

Experimental findings from article doi:10.1101/2021.04.03.438258 are described below.

The assay has as its target SARS-CoV-2 HexaPro S (SARS-CoV-2). Put plainly: cryo-EM structure.

On to “SARS-CoV-2 HexaPro S (domain or fragment)”, for which the stoichiometry N stood at 3.
